Measurements reported in patent publication US20170296640A1 (IMMATICS BIOTECHNOLOGIES, published 2017).
No end group written: not given here.

target: T1, HLA-A*02:01 (peptide-receptive MHC class I monomer after UV cleavage of the UV-sensitive ligand) (human); assay: UV ligand-exchange ELISA; exchange yield grade (+ >=10%, ++ >=20%, +++ >=50%, ++++ >=75%)
T1 construct: MHC monomers loaded by UV-ligand exchange and captured on streptavidin plates
Source text: Candidate peptides for T cell based therapies according to the present invention were further tested for their MHC binding capacity (affinity). The individual peptide-MHC complexes were produced by UV-ligand exchange, where a UV-sensitive peptide is cleaved upon UV-irradiation, and exchanged with the peptide of interest as analyzed. Only peptide candidates that can effectively bind and stabilize the peptide-receptive MHC molecules prevent dissociation of the MHC complexes. To determine the yield of the exchange reaction, an ELISA was performed based on the detection of the light chain (β2m) of stabilized MHC complexes. The assay was performed as generally described in Rodenko et al. (Rodenko et al., 2006).
96 well MAXISorp plates (NUNC) were coated over night with 2 ug/ml streptavidin in PBS at room temperature, washed 4× and blocked for 1 h at 37° C. in 2% BSA containing blocking buffer. Refolded HLA-A*02:01/MLA-001 monomers served as standards, covering the range of 15-500 ng/ml. Peptide-MHC monomers of the UV-exchange reaction were diluted 100 fold in blocking buffer. Samples were incubated for 1 h at 37° C., washed four times, incubated with 2 ug/ml HRP conjugated anti-β2m for 1 h at 37° C., washed again and detected with TMB solution that is stopped with […]. Absorption was measured at 450 nm. Candidate peptides that show a high exchange yield (preferably higher than 50%, most preferred higher than 75%) are generally preferred for a generation and production of antibodies or fragments thereof, and/or T cell receptors or fragments thereof, as they show sufficient avidity to the MHC molecules and prevent dissociation of the MHC complexes.

Binder | peptide exchange yield
YSDDDVPSV [YSDDDVPSV (SEQ ID NO: 253)] | ≥ 75%
VVVDSDSLAFV [VVVDSDSLAFV (SEQ ID NO: 270)] | ≥ 75%
YQYGAVVTL [YQYGAVVTL (SEQ ID NO: 238)] | 50 to 75%
LMGPVVHEV [LMGPVVHEV (SEQ ID NO: 262)] | ≥ 75%
FLNQESFDL [FLNQESFDL (SEQ ID NO: 27)] | 50 to 75%
KLIQLPVVYV [KLIQLPVVYV (SEQ ID NO: 245)] | 50 to 75%
FLQEWEVYA [FLQEWEVYA (SEQ ID NO: 257)] | ≥ 75%
FLDTSNQHLL [FLDTSNQHLL (SEQ ID NO: 25)] | 50 to 75%
IIAEGIPEA [IIAEGIPEA (SEQ ID NO: 227)] | 20 to 50%
IIAEYLSYV [IIAEYLSYV (SEQ ID NO: 228)] | 20 to 50%
ILSPWGAEV [ILSPWGAEV (SEQ ID NO: 229)] | ≥ 75%
VLFPLPTPL [VLFPLPTPL (SEQ ID NO: 268)] | ≥ 75%
GVIDPVPEV [GVIDPVPEV (SEQ ID NO: 226)] | 20 to 50%
FLIDLNSTHGTFL [FLIDLNSTHGTFL (SEQ ID NO: 277)] | 50 to 75%
KLMDLEDCAL [KLMDLEDCAL (SEQ ID NO: 275)] | ≥ 75%
TVLDGLEFKV [TVLDGLEFKV (SEQ ID NO: 259)] | ≥ 75%
KVLEMETTV [KVLEMETTV (SEQ ID NO: 247)] | 50 to 75%
FLQDIPDGLFL [FLQDIPDGLFL (SEQ ID NO: 223)] | 20 to 50%

Binder | peptide exchange yield
VLLESLVEI [VLLESLVEI (SEQ ID NO: 249)] | ≥ 75%
AILLPQPPK [AILLPQPPK (SEQ ID NO: 273)] | 20 to 50%
SLLETGSDLLL [SLLETGSDLLL (SEQ ID NO: 267)] | 50 to 75%
TLQTVPLTTV [TLQTVPLTTV (SEQ ID NO: 281)] | ≥ 75%
KVMEGTVAA [KVMEGTVAA (SEQ ID NO: 232)] | 20 to 50%
RIYPFLLMV [RIYPFLLMV (SEQ ID NO: 258)] | 50 to 75%
MLEVHIPSV [MLEVHIPSV (SEQ ID NO: 233)] | 50 to 75%
FLPETRIMTSV [FLPETRIMTSV (SEQ ID NO: 261)] | ≥ 75%
VLYELFTYI [VLYELFTYI (SEQ ID NO: 251)] | 50 to 75%
SLLNHLPYL [SLLNHLPYL (SEQ ID NO: 280)] | ≥ 75%
YLGDLIMAL [YLGDLIMAL (SEQ ID NO: 252)] | 50 to 75%
ILEPFLPAV [ILEPFLPAV (SEQ ID NO: 244)] | 50 to 75%
GLMDNEIKV [GLMDNEIKV (SEQ ID NO: 263)] | 50 to 75%
GMWNPNAPVFL [GMWNPNAPVFL (SEQ ID NO: 255)] | ≥ 75%
YLDRLIPQA [YLDRLIPQA (SEQ ID NO: 237)] | 50 to 75%
FLSPLLPLL [FLSPLLPLL (SEQ ID NO: 224)] | 20 to 50%
GLPDLDIYL [GLPDLDIYL (SEQ ID NO: 243)] | ≥ 75%

Next, values leading:

peptide exchange yield | Binder
≥ 75% | GILDFXVFL (not fully specified) [GILDFZVFL (SEQ ID NO: 242)]
≥ 75% | YLLDQPVLEQRL [YLLDQPVLEQRL (SEQ ID NO: 271)]
50 to 75% | FLSNANPSL [FLSNANPSL (SEQ ID NO: 28)]
50 to 75% | FLGSFIDHV [FLGSFIDHV (SEQ ID NO: 26)]
50 to 75% | VLTNVGAAL [VLTNVGAAL (SEQ ID NO: 250)]
50 to 75% | NLLEQFILL [NLLEQFILL (SEQ ID NO: 248)]
≥ 75% | ILWHFVASL [ILWHFVASL (SEQ ID NO: 265)]
≥ 75% | VLQNVAFSV [VLQNVAFSV (SEQ ID NO: 269)]
50 to 75% | ALQETPPQV [ALQETPPQV (SEQ ID NO: 256)]
≥ 75% | SLFDGFFLTA [SLFDGFFLTA (SEQ ID NO: 236)]
50 to 75% | FLLFINHRL [FLLFINHRL (SEQ ID NO: 278)]
≥ 75% | QLTEMLPSI [QLTEMLPSI (SEQ ID NO: 266)]
50 to 75% | ALVPTPALFYL [ALVPTPALFYL (SEQ ID NO: 240)]
≥ 75% | ALVEDIINL [ALVEDIINL (SEQ ID NO: 23)]
50 to 75% | ILTGTPPGV [ILTGTPPGV (SEQ ID NO: 264)]
≥ 75% | KLLNLISKL [KLLNLISKL (SEQ ID NO: 274)]

peptide exchange yield | Binder
20 to 50% | NLQRTVVTV [NLQRTVVTV (SEQ ID NO: 234)]
50 to 75% | IVMGAIPSV [IVMGAIPSV (SEQ ID NO: 231)]
≥ 75% | RLDEAFDFV [RLDEAFDFV (SEQ ID NO: 260)]
50 to 75% | KLPVPLESV [KLPVPLESV (SEQ ID NO: 246)]
50 to 75% | ALMPVTPQA [ALMPVTPQA (SEQ ID NO: 283)]
20 to 50% | NMISYVVHL [NMISYVVHL (SEQ ID NO: 276)]
20 to 50% | IMDDDSYGV [IMDDDSYGV (SEQ ID NO: 230)]
50 to 75% | NLAGENILNPL [NLAGENILNPL (SEQ ID NO: 279)]
≥ 75% | FLYSETWNI [FLYSETWNI (SEQ ID NO: 254)]
50 to 75% | SLDVYELFL [SLDVYELFL (SEQ ID NO: 235)]
50 to 75% | VLIDDTVLL [VLIDDTVLL (SEQ ID NO: 239)]
≥ 75% | YLLEQGAQV [YLLEQGAQV (SEQ ID NO: 282)]
20 to 50% | FIPDFIPAV [FIPDFIPAV (SEQ ID NO: 241)]
50 to 75% | KLDHTLSQI [KLDHTLSQI (SEQ ID NO: 272)]
50 to 75% | AVLGFSFRL [AVLGFSFRL (SEQ ID NO: 24)]
